Experimental data as given in paper PMC2676576.

Assays:
[1] = target: recombinant full-length human STAM of the full-length ESCRT-0 complex (human) (UniProt Q92783); assay: AUC
[2] = target: recombinant full-length human STAM of the full-length ESCRT-0 complex (human) (UniProt Q92783); assay: SEC-MALS
[3] = target: STAM(300-387) of ESCRT-0 core construct b (human) (UniProt Q92783); assay: SDS-PAGE and mass spectrometry of dissolved crystals

Sequence of recombinant full-length human STAM of the full-length ESCRT-0 complex (human) (Q92783 whole entry, one chain of several): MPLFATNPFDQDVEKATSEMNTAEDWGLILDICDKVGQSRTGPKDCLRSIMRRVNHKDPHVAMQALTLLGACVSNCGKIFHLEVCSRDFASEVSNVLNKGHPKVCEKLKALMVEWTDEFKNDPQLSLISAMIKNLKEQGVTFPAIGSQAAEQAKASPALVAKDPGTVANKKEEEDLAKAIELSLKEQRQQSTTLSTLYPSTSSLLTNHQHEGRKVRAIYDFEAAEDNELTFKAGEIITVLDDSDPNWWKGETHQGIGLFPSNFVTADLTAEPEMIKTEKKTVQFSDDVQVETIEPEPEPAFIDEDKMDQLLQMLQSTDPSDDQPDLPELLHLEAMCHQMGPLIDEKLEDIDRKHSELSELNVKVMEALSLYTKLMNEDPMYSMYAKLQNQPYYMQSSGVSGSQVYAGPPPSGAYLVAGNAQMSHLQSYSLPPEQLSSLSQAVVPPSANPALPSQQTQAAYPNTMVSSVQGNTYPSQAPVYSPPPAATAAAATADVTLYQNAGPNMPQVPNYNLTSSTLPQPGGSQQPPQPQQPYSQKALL
Sequence of Hrs(398-557) of ESCRT-0 core construct b (O14964 398-514): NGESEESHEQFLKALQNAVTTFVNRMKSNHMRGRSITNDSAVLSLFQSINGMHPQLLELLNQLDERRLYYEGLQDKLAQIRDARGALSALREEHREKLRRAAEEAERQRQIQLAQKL

stoichiometry N [1] | stoichiometry N [2] | stoichiometry N [3] | Substance
1 Hrs:STAM | 1 Hrs:STAM |  | recombinant full-length Hrs (mouse Hrs gene) of the full-length ESCRT-0 complex (from UniProt Q99LI8 1-775) (natural protein)
 |  | 1 Hrs:STAM | Hrs(398-557) of ESCRT-0 core construct b (from UniProt O14964 398-557) (domain or fragment)
